Assays:
[1] = target: T1, human adrenomedullin receptor 1 (hCRLR + hRAMP2) (human, UniProt O60895 43-175); experiment: cell-based or functional assay
[2] = target: T2, human amylin AMY1 receptor (hCTR + hRAMP1) (human, UniProt P30988 25-474); experiment: cell-based or functional assay
[3] = target: T3, cynomolgus CGRP receptor (cynoCRLR + cynoRAMP1) (cynomolgus monkey); experiment: cell-based or functional assay
T3 chain 1: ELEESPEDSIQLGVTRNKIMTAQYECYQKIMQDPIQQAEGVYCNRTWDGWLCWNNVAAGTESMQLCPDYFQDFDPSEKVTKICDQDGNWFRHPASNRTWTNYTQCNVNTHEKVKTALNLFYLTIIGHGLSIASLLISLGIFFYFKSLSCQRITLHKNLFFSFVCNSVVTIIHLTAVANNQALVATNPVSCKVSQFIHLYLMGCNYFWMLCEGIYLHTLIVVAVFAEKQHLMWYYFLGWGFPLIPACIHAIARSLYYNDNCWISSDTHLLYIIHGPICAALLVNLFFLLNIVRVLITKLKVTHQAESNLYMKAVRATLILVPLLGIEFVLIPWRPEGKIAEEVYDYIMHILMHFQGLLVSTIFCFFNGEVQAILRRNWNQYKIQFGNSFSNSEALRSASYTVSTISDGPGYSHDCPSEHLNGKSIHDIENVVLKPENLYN
T3 chain 2: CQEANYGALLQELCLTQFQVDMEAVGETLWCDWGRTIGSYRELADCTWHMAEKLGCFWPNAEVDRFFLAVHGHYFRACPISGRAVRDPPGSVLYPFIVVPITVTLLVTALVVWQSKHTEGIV

[4] = target: T4, human adrenomedullin receptor 2 (hCRLR + hRAMP3) (human, UniProt O60896 24-148); experiment: cell-based or functional assay
T4 sequence (O60896 24-148): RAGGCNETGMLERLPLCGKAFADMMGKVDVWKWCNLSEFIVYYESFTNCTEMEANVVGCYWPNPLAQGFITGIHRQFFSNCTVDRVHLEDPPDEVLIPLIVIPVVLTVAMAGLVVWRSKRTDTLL

[5] = target: T4, human adrenomedullin receptor 2 (hCRLR …); experiment: immunohistochemistry, CHO cells expressing recombinant human adrenomedullin receptor 2 (CRLR+RAMP3), staining intensity (visual score); the text says no staining was observed
Experimental: (§1) 2-4×10⁶ cells were injected per colla plug (Integra LifeSciences Co., Plainsboro, N.J.). Colla plugs were embedded in OCT medium (Sakura Finetek Inc., Torrance, Calif.), frozen at −20° C. and cut into 20 μm sections using a cryostat. Sections were fixed with 4% paraformaldehyde for 1 hour at room temperature (RT) and subsequently washed in phosphate-buffered saline (PBS). Endogenous peroxidase was blocked with 3% H₂O₂/PBS for 15 min and sections were incubated in blocking solution (PBS with 3% normal goat serum (Vector Labs, Burlingame, Calif.) and 0.3% triton X-100) for 1 hour. […] Sections were cleared with xylene and cover slipped with Permount (Fisher Chemicals, Fair Lawn, N.J.). Immunoreactivity was analyzed using a Nikon E-800 microscope and associated software (Nikon, Melville, N.Y.).

[6] = target: T5, human CGRP receptor (CRLR + RAMP1) (human, UniProt Q16602 23-461; O60894 27-148); experiment: immunohistochemistry, CGRP/CHO cells, staining intensity (visual score)
T5 construct: also called hCGRP R; huCGRP R
Experimental: as §1

[7] = target: T6, chimeric CGRP receptor: CRLR chimera #1 (L24 to Q33) + RAMP1 wt (human/rat chimera; human, UniProt Q16602 1-461; O60894 27-148); experiment: FACS on transfected 293-6E cells
T6 construct: also called CRLR L24-Q33+RAMP wt
Experimental: Cells were harvested after 72 hr, washed with PBS+0.5% BSA, and counted. Each transfected cell line was resuspended at a dilution of 5×10⁵ cells per 100 μl PBS/BSA. 100 μl of cell suspension was aliquot per well in a 96-well round-bottom plate (Falcon). The cells were pelleted at 1200 rpm for 5 min. […] Cells were incubated on ice for 1 hr. and then washed twice with PBS/BSA. […] Cells were incubated on ice in the dark for 1 hr. and then washed twice with PBS/BSA. Cells were resuspended in 200 μl PBS/BSA and analyzed using a FACS Calibur.

[8] = target: T2, human amylin AMY1 receptor (hCTR + …); experiment: immunohistochemistry, MCF-7 cells endogenously expressing amylin receptors, staining intensity (visual score); the text says no staining was observed
Experimental: as §1

[9] = target: T1, human adrenomedullin receptor 1 (hCRLR …); experiment: immunohistochemistry, HEK cells expressing recombinant human adrenomedullin receptor 1 (CRLR+RAMP2), staining intensity (visual score); the text says no staining was observed
Experimental: as §1

T2 sequence (P30988 25-474): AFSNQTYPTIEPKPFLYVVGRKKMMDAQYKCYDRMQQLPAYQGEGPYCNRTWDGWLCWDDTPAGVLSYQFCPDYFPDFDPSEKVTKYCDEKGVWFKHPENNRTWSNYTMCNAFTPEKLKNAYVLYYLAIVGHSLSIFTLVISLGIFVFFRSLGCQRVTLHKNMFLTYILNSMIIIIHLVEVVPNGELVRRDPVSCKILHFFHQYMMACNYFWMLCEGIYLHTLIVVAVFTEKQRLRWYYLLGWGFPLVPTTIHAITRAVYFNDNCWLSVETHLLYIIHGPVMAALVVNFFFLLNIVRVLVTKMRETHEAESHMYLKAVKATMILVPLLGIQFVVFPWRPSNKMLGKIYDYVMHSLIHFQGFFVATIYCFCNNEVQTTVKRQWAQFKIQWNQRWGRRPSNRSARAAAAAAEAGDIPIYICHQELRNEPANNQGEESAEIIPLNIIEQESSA

cAMP assay IC50 [1]: > 1000 nM
cAMP assay IC50 [2]: > 1000 nM
cAMP assay IC50 [3]: 1.93 nM
cAMP assay IC50 [4]: > 1000 nM
binding result [5]: no binding
binding result [6]: binds
binding result [7]: binds
binding result [8]: no binding
binding result [9]: no binding
B1: 32H7 (antibody, human IgG2, kappa, V domains shown)
VH: QVQLVESGGGVVQPGRSLRLSCAASGFTFSSYGMHWVRQAPGKGLEWVAVIWYDGSNKYYADSVKGRFIISRDKSKNTLYLQMNSLRAEDTAVYYCARAGGIAAAGLYYYYGMDVWGQGTTVTVSS
VL: EIVLTQSPGTLSLSPGERATLSCRASQSVSSGYLTWYQQKPGQAPRLLIYGASSRATGIPDRFSGSGSGTDFTLTISRLEPEDFAVYYCQQYGNSLCRFGQGTKLEIKR
notes: also called 32H7.1G
